# Test results as given in publication PMC3199733, “Expression, purification, electron microscopy, N-glycosylation mutagenesis and molecular modeling of human P2X4 and Dictyostelium discoideum P2XA” (Biochimica et Biophysica Acta, 2011).
# Several values for one entry are separate records, joined by “and”; a condition that tells them apart may be missing. Equal values may be shown once.
# B1: Dictyostelium discoideum P2XA-(His)6 (receptor, UniProt Q86JM7 1-378, looked up)
# chain: MGFSFDWDDIFQYSTVKIVRIRDRRLGILHLSFLVGIVAYIVVYSAIIKKGYLFTEVPIGSVRTSLKGPNTFASNLTYCSNQQHNGSTYPFTPLECNYWDEQLALFPVGQDSTFTCTTRVRLSKQEANCNFTDPTCKFVDEPGSAKNIYIADIESFTILIDHTMYASSSGSQFNAVDLHGYILNQDGDEVQIDANGTSIGVSGKPDIMTIGQLLSFGGVSLDQASPVDSNVSIRYDGVVLFVFITYSNTYTYSTSDFKYVYSVQQIANTIYDVPETIILESIHSRLLYKRHGIRVIFIQTGTIGSFHFQTLLLTLVSGLGLLAVATTVVDQLAIRLLPQRKSYSSLKFQVTESMSNPMKKRITTDEGEDVLYTRIEGL
# notes: P2XA receptor of Dictyostelium discoideum, full-length wild type, from a human codon-optimised cDNA; N-glycosylated (insect-cell type); also called DdP2XA; DdP2XA-(His)6; source: Sf9 cells, baculovirus-infected; in detergent-solubilised membranes, and purified (Ni-sepharose, preparative PFO-PAGE)
# B2: human P2X4-(His)10 (receptor, UniProt Q99571 1-388, looked up)
# chain: MAGCCAALAAFLFEYDTPRIVLIRSRKVGLMNRAVQLLILAYVIGWVFVWEKGYQETDSVVSSVTTKVKGVAVTNTSKLGFRIWDVADYVIPAQEENSLFVMTNVILTMNQTQGLCPEIPDATTVCKSDASCTAGSAGTHSNGVSTGRCVAFNGSVKTCEVAAWCPVEDDTHVPQPAFLKAAENFTLLVKNNIWYPKFNFSKRNILPNITTTYLKSCIYDAKTDPFCPIFRLGKIVENAGHSFQDMAVEGGIMGIQVNWDCNLDRAASLCLPRYSFRRLDTRDVEHNVSPGYNFRFAKYYRDLAGNEQRTLIKAYGIRFDIIVFGKAGKFDIIPTMINIGSGLALLGMATVLCDIIVLYCMKKRLYYREKKYKYVEDYEQGLASELDQ
# notes: human P2X4 receptor, full-length wild type; N-glycosylated (insect-cell type); also called hP2X4; source: Sf9 cells, baculovirus-infected; in membranes, untreated or detergent-solubilised
# Target: the molecule itself
# Experiment: native gel or EMSA; non-denaturing PFO-PAGE (6% gels, 4% PFO) with anti-His Western blot of Sf9 membranes, untreated (Total) or solubilised in 1% (w/v) detergent (DDM, beta-OG, TX-100, FC-12, C12E8, LDAO) in TBS, 1 h on ice
row,Protein,stoichiometry N
1,B1,3
2,B2,2 and 3
